The experiment concerns the target human CEACAM5 on cells (MKN45, BxPC-3, Ls174T, HCT116-huCEACAM5) (human) (UniProt P06731). The experiment in a line: flow cytometry on BxPC-3 cells (medium, 60,000 receptors/cell).

Sequence of human CEACAM5 on cells (MKN45, BxPC-3, Ls174T, HCT116-huCEACAM5) (human) (P06731 35-685 T210S limits assumed): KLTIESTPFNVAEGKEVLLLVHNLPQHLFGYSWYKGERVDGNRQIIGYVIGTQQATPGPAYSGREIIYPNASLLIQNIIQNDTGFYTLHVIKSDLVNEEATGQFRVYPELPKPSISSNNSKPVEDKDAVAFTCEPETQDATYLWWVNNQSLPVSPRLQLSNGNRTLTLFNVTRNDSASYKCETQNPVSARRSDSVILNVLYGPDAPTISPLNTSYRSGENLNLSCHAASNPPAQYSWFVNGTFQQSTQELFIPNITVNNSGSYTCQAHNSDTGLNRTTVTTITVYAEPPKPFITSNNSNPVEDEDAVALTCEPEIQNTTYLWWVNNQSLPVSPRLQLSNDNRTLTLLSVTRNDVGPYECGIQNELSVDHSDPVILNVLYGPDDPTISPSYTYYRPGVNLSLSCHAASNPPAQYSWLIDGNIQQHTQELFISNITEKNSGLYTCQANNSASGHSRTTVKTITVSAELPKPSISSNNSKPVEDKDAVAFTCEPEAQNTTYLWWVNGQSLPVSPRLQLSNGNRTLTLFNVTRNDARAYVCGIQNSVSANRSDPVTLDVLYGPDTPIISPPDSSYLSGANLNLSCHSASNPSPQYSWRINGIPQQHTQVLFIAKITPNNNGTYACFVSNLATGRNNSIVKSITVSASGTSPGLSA

As for mAb Control 3 (antibody), the EC50 (read off the curve) amounted to 8 nM.
